B1: Antiviral innate immune response receptor RIG-I (Homo sapiens), O95786-1 (parent)
chain: MTTEQRRSLQAFQDYIRKTLDPTYILSYMAPWFREEEVQYIQAEKNNKGPMEAATLFLKFLLELQEEGWFRGFLDALDHAGYSGLYEAIESWDFKKIEKLEEYRLLLKRLQPEFKTRIIPTDIISDLSECLINQECEEILQICSTKGMMAGAEKLVECLLRSDKENWPKTLKLALEKERNKFSELWIVEKGIKDVETEDLEDKMETSDIQIFYQEDPECQNLSENSCPPSEVSDTNLYSPFKPRNYQLELALPAMKGKNTIICAPTGCGKTFVSLLICEHHLKKFPQGQKGKVVFFANQIPVYEQQKSVFSKYFERHGYRVTGISGATAENVPVEQIVENNDIIILTPQILVNNLKKGTIPSLSIFTLMIFDECHNTSKQHPYNMIMFNYLDQKLGGSSGPLPQVIGLTASVGVGDAKNTDEALDYICKLCASLDASVIATVKHNLEELEQVVYKPQKFFRKVESRISDKFKYIIAQLMRDTESLAKRICKDLENLSQIQNREFGTQKYEQWIVTVQKACMVFQMPDKDEESRICKALFLYTSHLRKYNDALIISEHARMKDALDYLKDFFSNVRAAGFDEIEQDLTQRFEEKLQELESVSRDPSNENPKLEDLCFILQEEYHLNPETITILFVKTRALVDALKNWIEGNPKLSFLKPGILTGRGKTNQNTGMTLPAQKCILDAFKASGDHNILIATSVADEGIDIAQCNLVILYEYVGNVIKMIQTRGRGRARGSKCFLLTSNAGVIEKEQINMYKEKMMNDSILRLQTWDEAVFREKILHIQTHEKFIRDSQEKPKPVPDKENKKLLCRKCKALACYTADVRVIEECHYTVLGDAFKECFVSRPHPKPKQFSSFEKRAKIFCARQNCSHDWGIHVKYKTFEIPVIKIESFVVEDIATGVQTLYSKWKDFHFEKIPFDPAEMSK

Variants of: B1
Conditions: with MAVS

Variant	effect of a mutation on the interaction
T55I	decreasing interaction strength

Source: IntAct's records for PubMed 17190814
